# Assay results: IntAct's records for PubMed 15447654
# B1: Adagio protein 1 (Arabidopsis thaliana (Mouse-ear cress)), Q94BT6 (parent)
# chain: MEWDSGSDLSADDASSLADDEEGGLFPGGGPIPYPVGNLLHTAPCGFVVTDAVEPDQPIIYVNTVFEMVTGYRAEEVLGGNCRFLQCRGPFAKRRHPLVDSMVVSEIRKCIDEGIEFQGELLNFRKDGSPLMNRLRLTPIYGDDDTITHIIGIQFFIETDIDLGPVLGSSTKEKSIDGIYSALAAGERNVSRGMCGLFQLSDEVVSMKILSRLTPRDVASVSSVCRRLYVLTKNEDLWRRVCQNAWGSETTRVLETVPGAKRLGWGRLARELTTLEAAAWRKLSVGGSVEPSRCNFSACAVGNRVVLFGGEGVNMQPMNDTFVLDLNSDYPEWQHVKVSSPPPGRWGHTLTCVNGSNLVVFGGCGQQGLLNDVFVLNLDAKPPTWREISGLAPPLPRSWHSSCTLDGTKLIVSGGCADSGVLLSDTFLLDLSIEKPVWREIPAAWTPPSRLGHTLSVYGGRKILMFGGLAKSGPLKFRSSDVFTMDLSEEEPCWRCVTGSGMPGAGNPGGVAPPPRLDHVAVNLPGGRILIFGGSVAGLHSASQLYLLDPTEDKPTWRILNIPGRPPRFAWGHGTCVVGGTRAIVLGGQTGEEWMLSELHELSLASYLT
# Variants of: B1
# Settings: with skp1a_arath SKP1A
row,effect of a mutation on the interaction,Variant
1,decreasing interaction,L200A
2,decreasing interaction,L213A
